The text below walks through data of patent publication US20250270319A1 (Alector, published 2025).

One may read the Kd as the concentration at which binding is half-saturated. As a reminder, the koff is the rate constant with which the complex falls apart. The term kon denotes a measure of how fast the partners come together.

Assay [1] deals with human CD33 on primary human dendritic cells (human, UniProt P20138 18-364). Kind of assay: cell-based or functional assay.
In assay [2] the target is T1, recombinant human CD33 protein (Sino Biologicals) (human, UniProt P20138 18-259).
T1 construct: Bought protein; also called recombinant CD33
The assay can be described thus: BLI (ForteBio), antibody on anti-human Fc sensor, CD33 10 nM. On the procedure: Affinity parameters of the antibody variants for human CD33 were measured by BioLayer Interferometry in a ForteBio assay according to standard techniques (Estep et al. (2013) MAbs 5(2): 270-8) and were compared to those of the parental antibody (antibody 6C7H8) and the parental humanized antibody (antibody 6C71H5). Briefly, the antibodies were captured on anti-human Fc Biosensors (Pall ForteBio). Recombinant human CD33 (10 nM, Sino Biologicals) was then bound to the captured anti-CD33 surface (200 s association time, 1200 s dissociation time). Local fitting was used to extract association and dissociation rate constants (kₐ and kd, respectively) for each antibody. Apparent affinity constants (KD) were calculated from the ratio kd/kₐ.
In general terms: Biolayer interferometry detects binding as a change in optical thickness at a sensor tip.

Chain of human CD33 on primary human dendritic cells (P20138 18-364): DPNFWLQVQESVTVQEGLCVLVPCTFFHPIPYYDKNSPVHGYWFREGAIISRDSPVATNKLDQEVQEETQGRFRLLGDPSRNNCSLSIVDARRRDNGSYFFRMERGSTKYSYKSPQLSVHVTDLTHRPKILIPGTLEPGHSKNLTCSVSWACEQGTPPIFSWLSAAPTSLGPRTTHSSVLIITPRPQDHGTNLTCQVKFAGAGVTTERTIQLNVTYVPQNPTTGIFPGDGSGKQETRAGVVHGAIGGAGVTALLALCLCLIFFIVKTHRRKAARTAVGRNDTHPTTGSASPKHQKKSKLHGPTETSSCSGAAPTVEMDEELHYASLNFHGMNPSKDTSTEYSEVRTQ
T1 sequence (P20138 18-259 limits assumed): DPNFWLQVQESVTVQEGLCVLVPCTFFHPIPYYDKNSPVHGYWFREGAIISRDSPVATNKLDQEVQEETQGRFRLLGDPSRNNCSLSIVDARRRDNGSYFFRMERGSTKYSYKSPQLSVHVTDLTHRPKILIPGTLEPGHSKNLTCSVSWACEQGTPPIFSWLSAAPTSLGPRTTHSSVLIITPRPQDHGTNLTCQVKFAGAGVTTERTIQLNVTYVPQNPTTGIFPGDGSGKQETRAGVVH

B1: anti-CD33 antibody 6C7H12 (antibody, V domains shown)
VH: EVQLVESGGGLVQPGGSLRLSCAGSGFTFSNYGMNWVRQAPGKGLEWVAEIRLKSNNYVTNYAASVKGRFTISRDDSKNSVYLQMNSLKTEDTGVYYCTRAGYYVPFAYWGQGTLVTVSS
VL: QLVLTQSPSASASLGASVKLTCTLSSQHSTYTIEWYQQQPEKGPRYLMELKKEGSHSTGDGIPDRFSGSSSGAERYLTISSLQSEDEADYYCGVGDTIKEQFVYVFGGGTKLTVL
notes: VH/VL only
Turning to B1, in assay [1], the “Fold increase in potency compared to 6C7H5” value (from here on “Fold increase in potency”) amounted to 0.3 fold; the “Maximal reduction in CD33 (% remaining)” value came to 27.5 % remaining; the “Receptor downregulation, (EC50) (pM)” value is 160 pM. For the same molecule, in assay [2], the dissociation constant (Kd) is 0.926 nM, the koff came out at 0.000694 s⁻¹ and the kon turned out to be 749000 M⁻¹ s⁻¹.

B2: anti-CD33 antibody 6C7H24 (antibody, V domains shown)
VH: EVQLVESGGGLVQPGGSLRLSCAGSGFTFSNYNMNWVRQAPGKGLEWVAEIRLKSNNYVTNYAASVKGRFTISRDDSKNSVYLQMNSLKTEDTGVYYCTRAGYYVPFAYWGQGTLVTVSS
VL: QLVLTQSPSASASLGASVKLTCTLSSQHSTYTIEWYQQQPEKGPRYLMELKKEGSHSTGDGIPDRFSGSSSGAERYLTISSLQSEDEADYYCGVGDTIKEQFVYVFGGGTKLTVL
notes: VH/VL only
As to B2, in assay [1], the “Fold increase in potency” value came to 0.1 fold; the “Maximal reduction in CD33 (% remaining)” value came to 22.5 % remaining; the “Receptor downregulation, (EC50) (pM)” value came to 319 pM. Moreover, in assay [2], the Kd was 0.552 nM, the koff was 0.000757 s⁻¹ and the kon is 1.37e+06 M⁻¹ s⁻¹.

B3: anti-CD33 antibody 6C7H18 (antibody, V domains shown)
VH: EVQLVESGGGLVQPGGSLRLSCAGSGFTFSNYHMNWVRQAPGKGLEWVAEIRLKSNNYVTNYAASVKGRFTISRDDSKNSVYLQMNSLKTEDTGVYYCTRAGYYVPFAYWGQGTLVTVSS
VL: QLVLTQSPSASASLGASVKLTCTLSSQHSTYTIEWYQQQPEKGPRYLMELKKEGSHSTGDGIPDRFSGSSSGAERYLTISSLQSEDEADYYCGVGDTIKEQFVYVFGGGTKLTVL
notes: VH/VL only
For B3, in assay [1], the “Fold increase in potency” value turned out to be 0.3 fold; the “Maximal reduction in CD33 (% remaining)” value was 29.2 % remaining; the “Receptor downregulation, (EC50) (pM)” value was determined as 148 pM. In assay [2], the Kd turned out to be 0.609 nM, the koff was 0.00064 s⁻¹ and the kon came out at 1.05e+06 M⁻¹ s⁻¹.

B4: anti-CD33 antibody 6C7H14 (antibody, V domains shown)
VH: EVQLVESGGGLVQPGGSLRLSCAGSGFTFSNYAMNWVRQAPGKGLEWVAEIRLKSNNYVTNYAASVKGRFTISRDDSKNSVYLQMNSLKTEDTGVYYCTRAGYYVPFAYWGQGTLVTVSS
VL: QLVLTQSPSASASLGASVKLTCTLSSQHSTYTIEWYQQQPEKGPRYLMELKKEGSHSTGDGIPDRFSGSSSGAERYLTISSLQSEDEADYYCGVGDTIKEQFVYVFGGGTKLTVL
notes: VH/VL only
As for B4, in assay [1], the “Fold increase in potency” value was 0.3 fold; the “Maximal reduction in CD33 (% remaining)” value worked out at 28.4 % remaining; the “Receptor downregulation, (EC50) (pM)” value stood at 164 pM. Moreover, in assay [2], the Kd was determined as 0.805 nM, the koff was found to be 0.000798 s⁻¹ and the kon amounted to 991000 M⁻¹ s⁻¹.

B5: anti-CD33 antibody 6C7H28 (antibody, V domains shown)
VH: EVQLVESGGGLVQPGGSLRLSCAGSGFTFSDYSMNWVRQAPGKGLEWVAEIRLKSNNYVTNYAASVKGRFTISRDDSKNSVYLQMNSLKTEDTGVYYCTRAGYYVPFAYWGQGTLVTVSS
VL: QLVLTQSPSASASLGASVKLTCTLSSQHSTYTIEWYQQQPEKGPRYLMELKKEGSHSTGDGIPDRFSGSSSGAERYLTISSLQSEDEADYYCGVGDTIKEQFVYVFGGGTKLTVL
notes: VH/VL only
As to B5, in assay [1], the “Fold increase in potency” value came to 0.3 fold; the “Maximal reduction in CD33 (% remaining)” value was 27.6 % remaining; the “Receptor downregulation, (EC50) (pM)” value was determined as 147 pM. For the same molecule, in assay [2], the Kd turned out to be 0.76 nM, the koff stood at 0.000859 s⁻¹ and the kon was determined as 1.13e+06 M⁻¹ s⁻¹.

B6: anti-CD33 antibody 6C7H20 (antibody, V domains shown)
VH: EVQLVESGGGLVQPGGSLRLSCAGSGFTFSNYPMNWVRQAPGKGLEWVAEIRLKSNNYVTNYAASVKGRFTISRDDSKNSVYLQMNSLKTEDTGVYYCTRAGYYVPFAYWGQGTLVTVSS
VL: QLVLTQSPSASASLGASVKLTCTLSSQHSTYTIEWYQQQPEKGPRYLMELKKEGSHSTGDGIPDRFSGSSSGAERYLTISSLQSEDEADYYCGVGDTIKEQFVYVFGGGTKLTVL
notes: VH/VL only
With B6, in assay [1], the “Fold increase in potency” value came to 1 fold; the “Maximal reduction in CD33 (% remaining)” value was found to be 29 % remaining; the “Receptor downregulation, (EC50) (pM)” value is 40.8 pM. In assay [2], the Kd was 0.619 nM, the koff worked out at 0.000457 s⁻¹ and the kon is 739000 M⁻¹ s⁻¹.

B7: anti-CD33 antibody 6C7H15 (antibody, V domains shown)
VH: EVQLVESGGGLVQPGGSLRLSCAGSGFTFSNYSMNWVRQAPGKGLEWVAEIRLKSNNYVTNYAASVKGRFTISRDDSKNSVYLQMNSLKTEDTGVYYCTRAGYYVPFAYWGQGTLVTVSS
VL: QLVLTQSPSASASLGASVKLTCTLSSQHSTYTIEWYQQQPEKGPRYLMELKKEGSHSTGDGIPDRFSGSSSGAERYLTISSLQSEDEADYYCGVGDTIKEQFVYVFGGGTKLTVL
notes: VH/VL only
As to B7, in assay [1], the “Fold increase in potency” value turned out to be 0.2 fold; the “Maximal reduction in CD33 (% remaining)” value came to 27.7 % remaining; the “Receptor downregulation, (EC50) (pM)” value amounted to 252 pM. In assay [2], the Kd was found to be 1.03 nM, the koff was found to be 0.000825 s⁻¹ and the on-rate (kon) came out at 801000 M⁻¹ s⁻¹.

B8: anti-CD33 antibody 6C7H16 (antibody, V domains shown)
VH: EVQLVESGGGLVQPGGSLRLSCAGSGFTFSNYLMNWVRQAPGKGLEWVAEIRLKSNNYVTNYAASVKGRFTISRDDSKNSVYLQMNSLKTEDTGVYYCTRAGYYVPFAYWGQGTLVTVSS
VL: QLVLTQSPSASASLGASVKLTCTLSSQHSTYTIEWYQQQPEKGPRYLMELKKEGSHSTGDGIPDRFSGSSSGAERYLTISSLQSEDEADYYCGVGDTIKEQFVYVFGGGTKLTVL
notes: VH/VL only
As for B8, in assay [1], the “Fold increase in potency” value is 0.1 fold; the “Maximal reduction in CD33 (% remaining)” value stood at 28 % remaining; the “Receptor downregulation, (EC50) (pM)” value is 305 pM. In assay [2], the dissociation constant (Kd) was 0.782 nM, the koff turned out to be 0.00102 s⁻¹ and the kon was found to be 1.3e+06 M⁻¹ s⁻¹.

B9: anti-CD33 antibody 6C7H25 (antibody, V domains shown)
VH: EVQLVESGGGLVQPGGSLRLSCAGSGFTFSNYEMNWVRQAPGKGLEWVAEIRLKSNNYVTNYAASVKGRFTISRDDSKNSVYLQMNSLKTEDTGVYYCTRAGYYVPFAYWGQGTLVTVSS
VL: QLVLTQSPSASASLGASVKLTCTLSSQHSTYTIEWYQQQPEKGPRYLMELKKEGSHSTGDGIPDRFSGSSSGAERYLTISSLQSEDEADYYCGVGDTIKEQFVYVFGGGTKLTVL
notes: VH/VL only
B9: in assay [1], the “Fold increase in potency” value is 1.6 fold; the “Maximal reduction in CD33 (% remaining)” value was found to be 30.3 % remaining; the “Receptor downregulation, (EC50) (pM)” value came out at 27.6 pM. In assay [2], the Kd turned out to be 0.246 nM, the koff was determined as 0.00013 s⁻¹ and the kon was found to be 529000 M⁻¹ s⁻¹.

B10: anti-CD33 antibody 6C7H17 (antibody, V domains shown)
VH: EVQLVESGGGLVQPGGSLRLSCAGSGFTFSNYYMNWVRQAPGKGLEWVAEIRLKSNNYVTNYAASVKGRFTISRDDSKNSVYLQMNSLKTEDTGVYYCTRAGYYVPFAYWGQGTLVTVSS
VL: QLVLTQSPSASASLGASVKLTCTLSSQHSTYTIEWYQQQPEKGPRYLMELKKEGSHSTGDGIPDRFSGSSSGAERYLTISSLQSEDEADYYCGVGDTIKEQFVYVFGGGTKLTVL
notes: VH/VL only
Consider B10, for which, in assay [1], the “Fold increase in potency” value came to 0.8 fold; the “Maximal reduction in CD33 (% remaining)” value amounted to 32.1 % remaining; the “Receptor downregulation, (EC50) (pM)” value stood at 51.9 pM. Also, in assay [2], the equilibrium dissociation constant (Kd) is 0.853 nM, the off-rate (koff) worked out at 0.000523 s⁻¹ and the kon is 613000 M⁻¹ s⁻¹.

B11: anti-CD33 antibody 6C7H29 (antibody, V domains shown)
VH: EVQLVESGGGLVQPGGSLRLSCAGSGFTFSAYSMNWVRQAPGKGLEWVAEIRLKSNNYVTNYAASVKGRFTISRDDSKNSVYLQMNSLKTEDTGVYYCTRAGYYVPFAYWGQGTLVTVSS
VL: QLVLTQSPSASASLGASVKLTCTLSSQHSTYTIEWYQQQPEKGPRYLMELKKEGSHSTGDGIPDRFSGSSSGAERYLTISSLQSEDEADYYCGVGDTIKEQFVYVFGGGTKLTVL
notes: VH/VL only
For B11, in assay [1], the “Fold increase in potency” value was determined as 0.3 fold; the “Maximal reduction in CD33 (% remaining)” value stood at 27.3 % remaining; the “Receptor downregulation, (EC50) (pM)” value was found to be 134 pM. Also, in assay [2], the Kd worked out at 0.991 nM, the off-rate (koff) came out at 0.000868 s⁻¹ and the on-rate constant (kon) was determined as 875000 M⁻¹ s⁻¹.

B12: anti-CD33 antibody 6C7H23 (antibody, V domains shown)
VH: EVQLVESGGGLVQPGGSLRLSCAGSGFTFSNYVMNWVRQAPGKGLEWVAEIRLKSNNYVTNYAASVKGRFTISRDDSKNSVYLQMNSLKTEDTGVYYCTRAGYYVPFAYWGQGTLVTVSS
VL: QLVLTQSPSASASLGASVKLTCTLSSQHSTYTIEWYQQQPEKGPRYLMELKKEGSHSTGDGIPDRFSGSSSGAERYLTISSLQSEDEADYYCGVGDTIKEQFVYVFGGGTKLTVL
notes: VH/VL only
With B12, in assay [1], the “Fold increase in potency” value was found to be 0.4 fold; the “Maximal reduction in CD33 (% remaining)” value worked out at 26.2 % remaining; the “Receptor downregulation, (EC50) (pM)” value worked out at 120 pM. In assay [2], the Kd was found to be 0.558 nM, the koff was 0.000691 s⁻¹ and the on-rate constant (kon) is 1.24e+06 M⁻¹ s⁻¹.

B13: anti-CD33 antibody 6C7H26 (antibody, V domains shown)
VH: EVQLVESGGGLVQPGGSLRLSCAGSGFTFSNYIMNWVRQAPGKGLEWVAEIRLKSNNYVTNYAASVKGRFTISRDDSKNSVYLQMNSLKTEDTGVYYCTRAGYYVPFAYWGQGTLVTVSS
VL: QLVLTQSPSASASLGASVKLTCTLSSQHSTYTIEWYQQQPEKGPRYLMELKKEGSHSTGDGIPDRFSGSSSGAERYLTISSLQSEDEADYYCGVGDTIKEQFVYVFGGGTKLTVL
notes: VH/VL only
Turning to B13, in assay [1], the “Fold increase in potency” value came to 0.2 fold; the “Maximal reduction in CD33 (% remaining)” value was 28.3 % remaining; the “Receptor downregulation, (EC50) (pM)” value was 175 pM. In assay [2], the Kd was determined as 0.718 nM, the koff was 0.000944 s⁻¹ and the kon was 1.32e+06 M⁻¹ s⁻¹.
